Results on eight molecules are retold here after PMC10714992, “A monoclonal antibody targeting spore wall protein 1 inhibits the proliferation of Nosema bombycis in Bombyx mori” (Microbiology Spectrum, 2023).

For experiment [1], the target named is T1, recombinant GST-SWP1 fusion protein (Nosema bombycis CVCC 102059, UniProt B3STN5).
T1 construct: spore wall protein 1 (SWP1) of Nosema bombycis, gene cloned by PCR into pGEX-4T-1 (BamH I / XhoI); also called rGST-SWP1; source: E. coli Rosetta, pGEX-4T-1, purified (Glutathione Sepharose)
T1 sequence (B3STN5 20-278): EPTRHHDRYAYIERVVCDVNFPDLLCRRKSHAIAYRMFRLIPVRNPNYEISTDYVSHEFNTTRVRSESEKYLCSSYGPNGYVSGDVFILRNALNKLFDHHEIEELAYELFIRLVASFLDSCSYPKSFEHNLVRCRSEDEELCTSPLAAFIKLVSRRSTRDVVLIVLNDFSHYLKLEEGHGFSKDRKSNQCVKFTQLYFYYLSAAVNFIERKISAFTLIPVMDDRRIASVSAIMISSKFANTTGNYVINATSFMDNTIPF
As to the kind of experiment: ELISA; indirect ELISA: plates coated with recombinant GST-SWP1 (0.3 ug/well) overnight at 4 C, recombinant 6xHis-tagged antibodies from baculovirus added for 1 h at room temperature, detected with anti-6xHis rabbit mAb; titer. Conditions: both partners purified.

For experiment [2], the target named is T2, prokaryotic-expressed recombinant SWP1 (Nosema bombycis CVCC 102059, UniProt B3STN5).
T2 construct: spore wall protein 1 (SWP1) of Nosema bombycis, gene cloned by PCR from cDNA into pET30a (BamH I / HindIII); also called rSWP1; source: E. coli Rosetta, pET30a, purified (Ni-NTA)
T2 sequence (B3STN5 20-278): as above
As to the kind of experiment: Western blot; rSWP1 separated by SDS-PAGE; hemolymph or cell lysate of transgenic silkworms used as primary antibody. Conditions: one partner purified.

In experiment [3] the target is T3, Nosema bombycis spore wall protein 1, native (Nosema bombycis (strain CQ1 / CVCC …, UniProt B3STN5)).
T3 construct: spore wall protein 1 (SWP1) of Nosema bombycis, gene locus NBO_552g0005; also called SWP1; native SWP1
T3 sequence (B3STN5 20-278): as above
The experiment is described as follows: Western blot; alkali-soluble germination (spore) proteins separated by SDS-PAGE on PVDF; culture supernatant or lysate of G9-Neo, scFvG9-Neo and NscFvG9-Neo BmE cells used as primary antibody. Conditions: partners not purified.

B1: recombinant scFvG9 from the baculovirus expression system (scFv, V domains shown)
VH: QVQLQQSGAELARPGASVKMSCKASGYTFTGFSIHWVKQRPGQGLEWIGYINPSSAYTKYNQNFKDKATLTADKSSSTAYMQLNSLTSDDSAVYYCAYRYDVGDYWGQGTSVTVSS
VL: DIVITQSPSSLAVSAGEKVTLSCKSSQSLFNSRTRKNYLAWYQQKPGQSPKLLIYWASTRESGVPDRFTGSGSGTDFTLTISSVQAEDLAVYYCKQSYYLWTFGGGAKLEIK
notes: variable domain of the heavy chain of m1; (G4S)3 linker; variable domain of the light chain of m1; The construct contains a signal peptide and a 6xHis tag; Detected in the ELISA by an anti-6xHis antibody; also called rscFvG9; pFast-rscFvG9; source: Bac-to-Bac baculovirus system, insect cells (Sf-900 III / Sf9), serum-free medium, purified (Ni-NTA); not shown: His6, C-terminal, kept
For the molecule B1, the binding result in experiment [1] is “binds”.

B2: G9 intact antibody expressed in G9 transgenic silkworm (antibody, V domains shown)
VH: QVQLQQSGAELARPGASVKMSCKASGYTFTGFSIHWVKQRPGQGLEWIGYINPSSAYTKYNQNFKDKATLTADKSSSTAYMQLNSLTSDDSAVYYCAYRYDVGDYWGQGTSVTVSS
VL: DIVITQSPSSLAVSAGEKVTLSCKSSQSLFNSRTRKNYLAWYQQKPGQSPKLLIYWASTRESGVPDRFTGSGSGTDFTLTISSVQAEDLAVYYCKQSYYLWTFGGGAKLEIK
notes: as the heavy chain of m1 (G9H); as the light chain of m1 (G9L); Same IE1-G9H-SV40 + IE1-G9L-SV40 cassettes as m2, in pBac[A3-EGFP]; G9H has a signal peptide at the 5' end; It is not clear whether the light chain also carries a signal peptide and His tag; source: transgenic silkworm (Bombyx mori), hemolymph and cell lysate
As for B2, the binding result in experiment [2] is “binds”.

B3: scFvG9 expressed in scFvG9-Neo transgenic BmE cells (scFv, V domains shown)
VH: QVQLQQSGAELARPGASVKMSCKASGYTFTGFSIHWVKQRPGQGLEWIGYINPSSAYTKYNQNFKDKATLTADKSSSTAYMQLNSLTSDDSAVYYCAYRYDVGDYWGQGTSVTVSS
VL: DIVITQSPSSLAVSAGEKVTLSCKSSQSLFNSRTRKNYLAWYQQKPGQSPKLLIYWASTRESGVPDRFTGSGSGTDFTLTISSVQAEDLAVYYCKQSYYLWTFGGGAKLEIK
notes: variable domain of the heavy chain of m1; (G4S)3 linker; variable domain of the light chain of m1; The construct encodes an N-terminal secretion signal peptide from the CL40 anti-EBV/HHV-4 gHgL immunoglobulin heavy chain
As to B3, in experiment [3], the binding result is listed as “binds”.

B4: scFvG9 expressed in scFvG9 transgenic silkworm (scFv, V domains shown)
VH: QVQLQQSGAELARPGASVKMSCKASGYTFTGFSIHWVKQRPGQGLEWIGYINPSSAYTKYNQNFKDKATLTADKSSSTAYMQLNSLTSDDSAVYYCAYRYDVGDYWGQGTSVTVSS
VL: DIVITQSPSSLAVSAGEKVTLSCKSSQSLFNSRTRKNYLAWYQQKPGQSPKLLIYWASTRESGVPDRFTGSGSGTDFTLTISSVQAEDLAVYYCKQSYYLWTFGGGAKLEIK
notes: variable domain of the heavy chain of m1; (G4S)3 linker; variable domain of the light chain of m1; Same IE1-scFvG9-SV40 cassette as m3, which encodes a secretion signal peptide; also called scFv9; source: transgenic silkworm (Bombyx mori), hemolymph
With B4, the binding result in experiment [2] is listed as “binds”.

B5: recombinant G9 intact antibody (rG9H + rG9L) from the baculovirus expression system (antibody, V domains shown)
VH: QVQLQQSGAELARPGASVKMSCKASGYTFTGFSIHWVKQRPGQGLEWIGYINPSSAYTKYNQNFKDKATLTADKSSSTAYMQLNSLTSDDSAVYYCAYRYDVGDYWGQGTSVTVSS
VL: DIVITQSPSSLAVSAGEKVTLSCKSSQSLFNSRTRKNYLAWYQQKPGQSPKLLIYWASTRESGVPDRFTGSGSGTDFTLTISSVQAEDLAVYYCKQSYYLWTFGGGAKLEIK
notes: as the heavy chain of m1 (rG9H); as the light chain of m1 (rG9L); rG9H contains a signal peptide at the 5' end and is driven by the polyhedrin promoter; rG9L is driven by the p10 promoter; Detected in the ELISA by an anti-6xHis antibody; also called pFast-rG9; source: Bac-to-Bac baculovirus system, insect cells (Sf-900 III / Sf9), serum-free medium, purified (Ni-NTA); not shown: His6, C-terminal, …
For the molecule B5, in experiment [1], the binding result is “binds”.

B6: NscFvG9 expressed in NscFvG9-Neo transgenic BmE cells (scFv, V domains shown)
VH: QVQLQQSGAELARPGASVKMSCKASGYTFTGFSIHWVKQRPGQGLEWIGYINPSSAYTKYNQNFKDKATLTADKSSSTAYMQLNSLTSDDSAVYYCAYRYDVGDYWGQGTSVTVSS
VL: DIVITQSPSSLAVSAGEKVTLSCKSSQSLFNSRTRKNYLAWYQQKPGQSPKLLIYWASTRESGVPDRFTGSGSGTDFTLTISSVQAEDLAVYYCKQSYYLWTFGGGAKLEIK
notes: variable domain of the heavy chain of m1; (G4S)3 linker; variable domain of the light chain of m1; scFvG9 with the signal peptide of VH removed, expressed intracellularly; also called scFv without the secretory signal peptide
For the molecule B6, in experiment [3], the binding result was “binds”.

B7: NscFvG9 expressed in NscFvG9 transgenic silkworm (scFv, V domains shown)
VH: QVQLQQSGAELARPGASVKMSCKASGYTFTGFSIHWVKQRPGQGLEWIGYINPSSAYTKYNQNFKDKATLTADKSSSTAYMQLNSLTSDDSAVYYCAYRYDVGDYWGQGTSVTVSS
VL: DIVITQSPSSLAVSAGEKVTLSCKSSQSLFNSRTRKNYLAWYQQKPGQSPKLLIYWASTRESGVPDRFTGSGSGTDFTLTISSVQAEDLAVYYCKQSYYLWTFGGGAKLEIK
notes: variable domain of the heavy chain of m1; (G4S)3 linker; variable domain of the light chain of m1; Same IE1-NscFvG9-SV40 cassette as m4 (no signal peptide), in pBac[3xP3-EGFP]; also called NscFv9; source: transgenic silkworm (Bombyx mori), cell lysate
With B7, the binding result in experiment [2] was “binds”.

B8: G9 intact antibody expressed in G9-Neo transgenic BmE cells (antibody, V domains shown)
VH: QVQLQQSGAELARPGASVKMSCKASGYTFTGFSIHWVKQRPGQGLEWIGYINPSSAYTKYNQNFKDKATLTADKSSSTAYMQLNSLTSDDSAVYYCAYRYDVGDYWGQGTSVTVSS
VL: DIVITQSPSSLAVSAGEKVTLSCKSSQSLFNSRTRKNYLAWYQQKPGQSPKLLIYWASTRESGVPDRFTGSGSGTDFTLTISSVQAEDLAVYYCKQSYYLWTFGGGAKLEIK
notes: as the heavy chain of m1 (G9H); as the light chain of m1 (G9L); G9H was amplified with a signal peptide at the 5' end and a 6xHis tag at the 3' end; The light chain was made 'similarly', so it is not clear whether it also carries them; IE1 promoter; also called G9H + G9L
As for B8, the binding result in experiment [3] was “binds”.
